Measured values published in paper PMC2805098.
Where a chain is given by its changes, count along the chain named. Numbers in names are those of the source.

What was measured:
[1] = substrate: Nc1nc2c(c(=O)[nH]1)N1CN(c3ccc(C(=O)N[C@@H](CCC(=O)O)C(=O)O)cc3)C[C@H]1CN2; test: NADH-CH2-H4folate oxidoreductase assay, steady-state; assay type: biochemical, Escherichia coli; settings: other: 1000 μM NADH, fit to eq 6, anaerobic, 25 °C, pH 7.2
[2] = substrate: Nc1nc2c(c(=O)[nH]1)N1CN(c3ccc(C(=O)N[C@@H](CCC(=O)O)C(=O)O)cc3)C[C@H]1CN2; test: purified protein, by the assay type; settings: other: 500 μM NADH, anaerobic, 25 °C, pH 7.2

B1: Phe223Leu MTHFR (Escherichia coli K-12; F223L) (protein)
chain: MSFFHASQRDALNQSLAEVQGQINVSFEFFPPRTSEMEQTLWNSIDRLSSLKPKFVSVTYGANSGERDRTHSIIKGIKDRTGLEAAPHLTCIDATPDELRTIARDYWNNGIRHIVALRGDLPPGSGKPEMYASDLVTLLKEVADFDISVAAYPEVHPEAKSAQADLLNLKRKVDAGANRAITQFFFDVESYLRFRDRCVSAGIDVEIIPGILPVSNFKQAKKLADMTNVRIPAWMAQMFDGLDDDAETRKLVGANIAMDMVKILSREGVKDFHFYTLNRAEMSYAICHTLGVRPGL
- Km [1]: 8 ± 2 µM

B2: Phe223Ala MTHFR (Escherichia coli K-12; F223A) (protein)
chain: B1 chain with L223A
- Km [2]: 93 ± 16 µM
